Consider one molecule from patent publication US5928915A, “CHO cell sialidase by recombinant DNA technology” (Genentech, Inc., priority 1997, dated 1999).

For this series, the target named is T1, CHO cell sialidase (Cricetulus griseus, UniProt Q64393).
T1 construct: The sialidase described was purified from the cell culture fluid of a single production cell line (CHO 14.16); endogenous in cells; host or cells: CHO 14.16 cells (purified from the cell culture fluid)
Put plainly: Sialidase kinetic constants with soluble sialylglycoconjugate substrates. The class given is biochemical, Chinese hamster. As for the experimental part:
Fluorescent sialidase assays: Standard assay conditions for monitoring the enzyme activity during purification using the fluorescent substrate analog are: 1.3 mM 4-MUNeu5Ac, 50 mM phosphate buffer, pH 6.8, 0.3 mg bovine serum albumin and varying amounts of enzyme in a total volume of 30 μl. After addition of enzyme the samples are incubated at 37° C. in a shaking water bath for 5 minutes. The reaction is terminated and the fluorescence of the liberated umbelliferone is enhanced by the addition of 2 ml of 80 mM glycine-carbonate buffer, pH 9.7. Quantification of the product is made by measuring the fluorescence of the samples with excitation at 365 nm and emission at 450 nm using a standard of 4-methyl umbelliferone. A unit of enzyme activity is defined as a μmol/min of sialic acid liberated.
Sialidase assays with natural substrates: When natural substrates are tested with the purified enzyme, the amount of released sialic acid is measured using the thiobarbituric acid assay as modified by Uchida [Uchida et al. J. Biochem., 82:1425 (1977)] using sialic acid as standard. […] All samples are cleared by centrifugation (1,000×G, 10 min) prior to determining the absorbance at 540 nm.
Enzyme kinetic parameters: Assay conditions (time and added enzyme) are modified for each substrate so that initial reaction rates are measured. […]

T1 sequence (Q64393 whole entry): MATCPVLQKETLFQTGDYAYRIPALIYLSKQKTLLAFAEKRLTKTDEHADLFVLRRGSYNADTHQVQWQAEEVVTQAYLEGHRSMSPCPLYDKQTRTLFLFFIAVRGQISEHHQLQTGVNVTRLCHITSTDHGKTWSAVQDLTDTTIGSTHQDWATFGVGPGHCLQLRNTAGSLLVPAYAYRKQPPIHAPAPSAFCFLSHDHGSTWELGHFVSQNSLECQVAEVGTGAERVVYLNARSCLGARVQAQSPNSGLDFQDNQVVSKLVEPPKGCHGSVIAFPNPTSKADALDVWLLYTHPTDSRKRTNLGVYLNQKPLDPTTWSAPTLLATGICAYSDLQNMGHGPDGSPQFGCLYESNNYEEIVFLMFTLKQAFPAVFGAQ

B1: rDeoxyribonuclease 1: encoded by a human-derived nucleotide sequence, was expressed in Chinese hamster ovary cells (protein, UniProt P24855 23-282, looked up)
Deoxyribonuclease-1: LKIAAFNIQTFGETKMSNATLVSYIVQILSRYDIALVQEVRDSHLTAVGKLLDNLNQDAPDTYHYVVSEPLGRNSYKERYLFVYRPDQVSAVDSYYYDDGCEPCGNDTFNREPAIVRFFSRFTEVREFAIVPLHAAPGDAVAEIDALYDVYLDVQEKWGLEDVMLMGDFNAGCSYVRPSQWSSIRLWTSPTFQWLIPDSADTTATPTHCAYDRIVVAGMLLRGAVVPDSALPFNFQAAYGLSDQLAQAISDHYPVEVMLK
The Vmax is the rate approached at saturating substrate. Regarding B1, under “apparent, standard assay conditions, average of duplicates, relative error about 10%”, the Vmax came out at 12 µmol/min/mg. Further, the “Km values compared (in words)” value (transferrin versus deoxyribonuclease I) is listed as “nearly identical”.
